Test results as given in publication PMC10397247.

Legend:
4H754-bA = target: T1, 4H754-bA; assay: two-hybrid library CCNG1;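 note: natural log of median RNA to DNA barcode read ratio; higher means stronger binding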
T1 chain: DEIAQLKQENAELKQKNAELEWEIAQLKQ

4H918-bA = target: T2, 4H918-bA; assay: two-hybrid library CCNG1;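 note: natural log of median RNA to DNA barcode read ratio; higher means stronger binding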
T2 chain: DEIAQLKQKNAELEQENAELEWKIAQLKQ

4H3112-bA = target: T3, 4H3112-bA; assay: two-hybrid library CCNG1;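 note: natural log of median RNA to DNA barcode read ratio; higher means stronger binding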
T3 chain: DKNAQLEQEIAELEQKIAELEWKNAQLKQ

4H683-bA = target: T4, 4H683-bA; assay: two-hybrid library CCNG1;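 note: natural log of median RNA to DNA barcode read ratio; higher means stronger binding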
T4 chain: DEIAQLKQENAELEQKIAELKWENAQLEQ

4H855-bA = target: T5, 4H855-bA; assay: two-hybrid library CCNG1;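 note: natural log of median RNA to DNA barcode read ratio; higher means stronger binding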
T5 chain: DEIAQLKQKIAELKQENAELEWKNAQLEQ

4H968-bA = target: T6, 4H968-bA; assay: two-hybrid library CCNG1;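 note: natural log of median RNA to DNA barcode read ratio; higher means stronger binding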
T6 chain: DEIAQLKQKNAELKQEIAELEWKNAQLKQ

4H575-bA = target: T7, 4H575-bA; assay: two-hybrid library CCNG1
T7 chain: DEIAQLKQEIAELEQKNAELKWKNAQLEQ

4H346-bA = target: T8, 4H346-bA; assay: two-hybrid library CCNG1
T8 chain: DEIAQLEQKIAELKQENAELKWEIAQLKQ

4H953-bA = target: T9, 4H953-bA; assay: two-hybrid library CCNG1
T9 chain: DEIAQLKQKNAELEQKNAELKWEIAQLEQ

4H457-bA = target: T10, 4H457-bA; assay: two-hybrid library CCNG1
T10 chain: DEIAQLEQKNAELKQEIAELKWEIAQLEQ

4H780-bA = target: T11, 4H780-bA; assay: two-hybrid library CCNG1
T11 chain: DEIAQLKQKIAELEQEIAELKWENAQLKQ

4H3427-bA = target: T12, 4H3427-bA; assay: two-hybrid library CCNG1
T12 chain: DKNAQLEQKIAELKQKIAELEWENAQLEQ

4H2702-bA = target: T13, 4H2702-bA; assay: two-hybrid library CCNG1
T13 chain: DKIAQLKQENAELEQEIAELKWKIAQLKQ

4H3926-bA = target: T14, 4H3926-bA; assay: two-hybrid library CCNG1
T14 chain: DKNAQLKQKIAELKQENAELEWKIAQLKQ

4H2673-bA = target: T15, 4H2673-bA; assay: two-hybrid library CCNG1
T15 chain: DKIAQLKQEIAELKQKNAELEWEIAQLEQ

4H3010-bA = target: T16, 4H3010-bA; assay: two-hybrid library CCNG1
T16 chain: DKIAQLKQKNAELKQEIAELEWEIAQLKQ

4H4073-bA = target: T17, 4H4073-bA; assay: two-hybrid library CCNG1
T17 chain: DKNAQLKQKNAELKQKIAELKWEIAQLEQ

4H797-bA = target: T18, 4H797-bA; assay: two-hybrid library CCNG1
T18 chain: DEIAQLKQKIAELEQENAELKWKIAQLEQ

P9mS = target: T19, P9mS; assay: two-hybrid library CCNG1
T19 chain: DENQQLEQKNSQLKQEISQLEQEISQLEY

O6-AA = target: T20, O6-AA; assay: two-hybrid library CCmax; conditions: mean of both orientations
T20 chain: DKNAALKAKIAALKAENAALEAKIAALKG

O7-AA = target: T21, O7-AA; assay: two-hybrid library CCmax; conditions: mean of both orientations
T21 chain: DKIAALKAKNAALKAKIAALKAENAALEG

O8-AA = target: T22, O8-AA; assay: two-hybrid library CCmax; conditions: mean of both orientations
T22 chain: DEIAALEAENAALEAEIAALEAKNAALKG

P10-AA = target: T23, P10-AA; assay: two-hybrid library CCmax; conditions: mean of both orientations
T23 chain: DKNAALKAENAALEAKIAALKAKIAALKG

O3-AA = target: T24, O3-AA; assay: two-hybrid library CCmax
T24 chain: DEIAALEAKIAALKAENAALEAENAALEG

P9-AA = target: T25, P9-AA; assay: two-hybrid library CCmax; conditions: mean of both orientations
T25 chain: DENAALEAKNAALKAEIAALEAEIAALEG

O4-AA = target: T26, O4-AA; assay: two-hybrid library CCmax; conditions: mean of both orientations
T26 chain: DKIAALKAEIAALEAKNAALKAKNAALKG

O5-AA = target: T27, O5-AA; assay: two-hybrid library CCmax; conditions: mean of both orientations
T27 chain: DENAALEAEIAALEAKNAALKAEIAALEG

4H3709-AA = target: T28, 4H3709-AA; assay: two-hybrid library CCmax; conditions: mean of both orientations
T28 chain: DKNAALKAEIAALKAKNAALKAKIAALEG

4H3920-AA = target: T29, 4H3920-AA; assay: two-hybrid library CCmax; conditions: mean of both orientations
T29 chain: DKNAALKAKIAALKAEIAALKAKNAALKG

4H497-AA = target: T30, 4H497-AA; assay: two-hybrid library CCmax; conditions: mean of both orientations
T30 chain: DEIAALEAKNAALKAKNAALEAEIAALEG

4H3417-AA = target: T31, 4H3417-AA; assay: two-hybrid library CCmax; conditions: mean of both orientations
T31 chain: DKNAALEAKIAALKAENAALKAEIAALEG

4H3939-AA = target: T32, 4H3939-AA; assay: two-hybrid library CCmax; conditions: mean of both orientations
T32 chain: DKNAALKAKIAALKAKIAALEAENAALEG

4H1854-AA = target: T33, 4H1854-AA; assay: two-hybrid library CCmax
T33 chain: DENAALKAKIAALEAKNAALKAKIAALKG

4H391-AA = target: T34, 4H391-AA; assay: two-hybrid library CCmax; conditions: mean of both orientations
T34 chain: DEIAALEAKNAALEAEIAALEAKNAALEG

4H2948-AA = target: T35, 4H2948-AA; assay: two-hybrid library CCmax; conditions: mean of both orientations
T35 chain: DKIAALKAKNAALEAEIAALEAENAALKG

4H3121-AA = target: T36, 4H3121-AA; assay: two-hybrid library CCmax; conditions: mean of both orientations
T36 chain: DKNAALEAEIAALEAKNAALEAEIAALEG

4H428-AA = target: T37, 4H428-AA; assay: two-hybrid library CCmax; conditions: mean of both orientations
T37 chain: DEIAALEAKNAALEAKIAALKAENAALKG

4H3029-AA = target: T38, 4H3029-AA; assay: two-hybrid library CCmax; conditions: mean of both orientations
T38 chain: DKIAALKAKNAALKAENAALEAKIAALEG

4H3102-AA = target: T39, 4H3102-AA; assay: two-hybrid library CCmax; conditions: mean of both orientations
T39 chain: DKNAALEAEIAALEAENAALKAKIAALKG

4H2991-AA = target: T40, 4H2991-AA; assay: two-hybrid library CCmax; conditions: mean of both orientations
T40 chain: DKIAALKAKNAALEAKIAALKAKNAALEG

4H2742-AA = target: T41, 4H2742-AA; assay: two-hybrid library CCmax; conditions: mean of both orientations
T41 chain: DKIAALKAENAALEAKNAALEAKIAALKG

4H3666-AA = target: T42, 4H3666-AA; assay: two-hybrid library CCmax; conditions: mean of both orientations
T42 chain: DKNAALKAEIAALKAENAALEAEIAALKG

4H971-AA = target: T43, 4H971-AA; assay: two-hybrid library CCmax; conditions: mean of both orientations
T43 chain: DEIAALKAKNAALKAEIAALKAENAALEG

4H3446-AA = target: T44, 4H3446-AA; assay: two-hybrid library CCmax; conditions: mean of both orientations
T44 chain: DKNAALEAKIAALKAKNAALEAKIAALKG

4H3591-AA = target: T45, 4H3591-AA; assay: two-hybrid library CCmax; conditions: mean of both orientations
T45 chain: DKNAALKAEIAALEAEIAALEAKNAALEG

4H189-AA = target: T46, 4H189-AA; assay: two-hybrid library CCmax; conditions: mean of both orientations
T46 chain: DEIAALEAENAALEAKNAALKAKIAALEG

4H656-AA = target: T47, 4H656-AA; assay: two-hybrid library CCmax; conditions: mean of both orientations
T47 chain: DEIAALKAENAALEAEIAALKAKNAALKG

4H3066-AA = target: T48, 4H3066-AA; assay: two-hybrid library CCmax; conditions: mean of both orientations
T48 chain: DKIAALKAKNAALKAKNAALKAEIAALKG

4H675-AA = target: T49, 4H675-AA; assay: two-hybrid library CCmax; conditions: mean of both orientations
T49 chain: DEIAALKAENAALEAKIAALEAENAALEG

4H478-AA = target: T50, 4H478-AA; assay: two-hybrid library CCmax; conditions: mean of both orientations
T50 chain: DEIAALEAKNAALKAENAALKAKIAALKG

4H2713-AA = target: T51, 4H2713-AA; assay: two-hybrid library CCmax; conditions: mean of both orientations
T51 chain: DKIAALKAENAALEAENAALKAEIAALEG

4H2248-AA = target: T52, 4H2248-AA; assay: two-hybrid library CCmax; conditions: mean of both orientations
T52 chain: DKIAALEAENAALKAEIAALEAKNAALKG

4H2283-AA = target: T53, 4H2283-AA; assay: two-hybrid library CCmax; conditions: mean of both orientations
T53 chain: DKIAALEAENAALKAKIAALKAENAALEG

4H3628-AA = target: T54, 4H3628-AA; assay: two-hybrid library CCmax; conditions: mean of both orientations
T54 chain: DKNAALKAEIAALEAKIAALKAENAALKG

DKIAQLKQEIAELKQKNAELEWEIAQLEQ [4H2673-bA]
interaction score (4H754-bA): -0.889
interaction score (4H918-bA): -0.235
interaction score (4H3112-bA): -0.873
interaction score (4H683-bA): -0.575
interaction score (4H855-bA): 0.000366
interaction score (4H968-bA): -0.811
interaction score (4H575-bA): 0.276
interaction score (4H346-bA): -0.931
interaction score (4H953-bA): -0.927
interaction score (4H457-bA): -1.45
interaction score (4H780-bA): -1.03
interaction score (4H3427-bA): -1.17
interaction score (4H2702-bA): -1.01
interaction score (4H3926-bA): 1.58
interaction score (4H2673-bA): 0.275
interaction score (4H3010-bA): 2
interaction score (4H4073-bA): 0.202
interaction score (4H797-bA): -2.16

DENQQLEQKNSQLKQEISQLEQEISQLEY [P9mS]
interaction score (P9mS): -1.32

DEIAALEAKIAALKAENAALEAENAALEG [O3-AA]
interaction score (O6-AA): -0.902
interaction score (O7-AA): -1.4
interaction score (O8-AA): -1.37
interaction score (P10-AA): -1.06
interaction score (O3-AA): -0.811
interaction score (P9-AA): -0.88
interaction score (O4-AA): 1.99
interaction score (O5-AA): -1.22

DENAALKAKIAALEAKNAALKAKIAALKG [4H1854-AA]
interaction score (4H3709-AA): -0.898
interaction score (4H3920-AA): -1.51
interaction score (4H497-AA): -1.88
interaction score (4H3417-AA): 1.7
interaction score (4H3939-AA): -1.28
interaction score (4H1854-AA): 0.401
interaction score (4H391-AA): 0.189
interaction score (4H2948-AA): -0.756
interaction score (4H3121-AA): 1.28
interaction score (4H428-AA): -0.746
interaction score (4H3029-AA): -0.674
interaction score (4H3102-AA): 0.389
interaction score (4H2991-AA): -1.61
interaction score (4H2742-AA): -1.53
interaction score (4H3666-AA): 1.68
interaction score (4H971-AA): -2.3
interaction score (4H3446-AA): -1
interaction score (4H3591-AA): -0.937
interaction score (4H189-AA): -1.76
interaction score (4H656-AA): 0.553
interaction score (4H3066-AA): -1.5
interaction score (4H675-AA): 0.675
interaction score (4H478-AA): -1.16
interaction score (4H2713-AA): -0.843
interaction score (4H2248-AA): 1.14
interaction score (4H2283-AA): -0.597
interaction score (4H3628-AA): -1.22
